From the supplement of paper PMC9170038

Assays:
[1] = test system: K4 kissing-loop RNA reporter; experiment: apparent KD of K4 kissing-loop reporter; higher = weaker reporter binding; conditions: Eterna round: R107;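 further: bound reporter read as fluorescence of individual clusters on recovered sequencing chips by microscopy, with normalized cluster intensities fitted with a binding model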
Experimental: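 RNA-MaP round R107: designed RNA switches with theophylline, tryptophan, arginine or FMN aptamers are transcribed on-chip within common flanks. They are titrated with a labelled K4 kissing-loop RNA reporter in RNA-MaP buffer (100 mM Tris pH 7.5, 80 mM KCl, 4 mM MgCl2), without ligand or with the indicated ligand. Median apparent KD per design.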

MS2 coat protein = experiment: apparent KD of MS2 coat protein; designed switch direction (-1 OFF switch, 1 ON switch): -1; higher = weaker reporter binding
In short: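 Designed RNA switches with common flanks were made on Illumina chips by stalled E. coli RNA polymerase. Titration with SNAP-549-labelled MS2 coat protein doubled from 0.7 or 1.5 nM up to 3 µM. Apparent KD is each design's median over clusters after curve-fitting normalised fluorescence.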

[2] = input ligand: theophylline 20 uM
[3] = input ligand: tryptophan 2.4 mM
[4] = Eterna round: R95, input ligand: FMN 200 uM
[5] = Eterna round: R95, input ligand: microRNA oligo, concentration not stated
[6] = Eterna round: R95, input ligand: none

Sequence: AGGAUAUAGUGAUGUUAUAUAAGAAGAAAACGAGGACCGGUACGGCCGCCACUCGAAGCGGCUACUAAGAGGGAAAGAAGAGGAA [ExTryptoA.A]
- apparent KD of K4 kissing-loop reporter ([1]; input ligand: FMN 200 uM): 174 nM
- apparent KD of K4 kissing-loop reporter ([1]; input ligand: arginine 13.2 mM): 181 nM
- apparent KD of K4 kissing-loop reporter ([1]; input ligand: none): 215 nM
- apparent KD of K4 kissing-loop reporter [1, 2]: 294 nM
- apparent KD of K4 kissing-loop reporter [1, 3]: 143 nM

Sequence: AAGAGGUAGGCGGCCGCCACUUGUUGUGAACACAUACGAGCCAGUGAUGUUGGUAUUGUGGGCGGAAGGACCGGGCCUACCUGAA [Exclusion - Tryptophan B (Freestyle 20)]
- apparent KD of K4 kissing-loop reporter ([1]; input ligand: FMN 200 uM): 317 nM
- apparent KD of K4 kissing-loop reporter ([1]; input ligand: arginine 13.2 mM): 304 nM
- apparent KD of K4 kissing-loop reporter ([1]; input ligand: none): 320 nM
- apparent KD of K4 kissing-loop reporter [1, 2]: 328 nM
- apparent KD of K4 kissing-loop reporter [1, 3]: 386 nM

Sequence: ACGAUUUACAGAAGGAGCGUGUAUUUAACUACAAUUAUCAUAGCGAGUGAUGUUCGUUAUACACAGGUAGGUCGCUGUAUAUCGA [JR_ExcArginiB_Sub012]
- apparent KD of K4 kissing-loop reporter ([1]; input ligand: FMN 200 uM): 364 nM
- apparent KD of K4 kissing-loop reporter ([1]; input ligand: arginine 13.2 mM): 367 nM
- apparent KD of K4 kissing-loop reporter ([1]; input ligand: none): 356 nM
- apparent KD of K4 kissing-loop reporter [1, 2]: 451 nM
- apparent KD of K4 kissing-loop reporter [1, 3]: 397 nM

Sequence: CUGGGUUGACGAAAAGUCAACAAAAGAGAAGGAGCGCACGAAAGUGCAGGUAGGUCGCUCAGUCCAGUGAUGUUGGAUCAUCCAG [#SwitchBubble 11 #K4Late]
- apparent KD of K4 kissing-loop reporter ([1]; input ligand: FMN 200 uM): 324 nM
- apparent KD of K4 kissing-loop reporter ([1]; input ligand: arginine 13.2 mM): 502 nM
- apparent KD of K4 kissing-loop reporter ([1]; input ligand: none): 484 nM
- apparent KD of K4 kissing-loop reporter [1, 2]: 454 nM
- apparent KD of K4 kissing-loop reporter [1, 3]: 346 nM

Sequence: CCUAUCUCUUACGAUACCAGUCAAUGAUAUUUUAUCAAUGCCCUCACCGAGUGAUGUUCGGACCCUUGGCAGCGUAUGGGAUAGG [kjnjmullin]
- apparent KD of K4 kissing-loop reporter ([1]; input ligand: FMN 200 uM): 241 nM
- apparent KD of K4 kissing-loop reporter ([1]; input ligand: arginine 13.2 mM): 162 nM
- apparent KD of K4 kissing-loop reporter ([1]; input ligand: none): 212 nM
- apparent KD of K4 kissing-loop reporter [1, 2]: 175 nM
- apparent KD of K4 kissing-loop reporter [1, 3]: 188 nM

Sequence: AGAGUACGAAAGUACUCCUCUACACACUGUCGAGGACCGGUACGGCCGCCACUCGAGUUGAGUGAUGUUCGAUAGUGUGUAGAGA [Omei KL Tryp A SS C v4]
- apparent KD of K4 kissing-loop reporter ([1]; input ligand: FMN 200 uM): 66.4 nM
- apparent KD of K4 kissing-loop reporter ([1]; input ligand: arginine 13.2 mM): 57.3 nM
- apparent KD of K4 kissing-loop reporter ([1]; input ligand: none): 30 nM
- apparent KD of K4 kissing-loop reporter [1, 2]: 104 nM
- apparent KD of K4 kissing-loop reporter [1, 3]: 142 nM

Sequence: CUGAGCAGACGGAGAUCCAACAUGAGGAUCACCCAUGUCUCAAAAGCUUUUUGCUCGUCUUACCCUCCUCUGCUCUC [Ticeisor] (puzzle: Sensor v3, turn-off variant 1)
- apparent KD of MS2 coat protein (MS2 coat protein; [4]): 19.1 nM
- apparent KD of MS2 coat protein (MS2 coat protein; [5]): 40.3 nM
- apparent KD of MS2 coat protein (MS2 coat protein; [6]): 15.1 nM

Sequence: UUUUUGUCAGGAUAUGAUUAGAUCUACUUCGGUAGAUCUAAUCAGAAGGGACAUGAGGAUCACCCAUGUAGUUU [Ex4 - 3 - 12] (puzzle: Exclusion 4)
- apparent KD of MS2 coat protein (MS2 coat protein; [5]): 35.2 nM

Sequence: CCUCCGGUAUAGGAUAUUUAUGAGCUCAGUUCUAAAGAAGGGUAUACAUGAGGAUCACCCAUGUGUGAAGUUAU [Eternabot (L2) Solution 20] (Eterna round: R97, puzzle: Exclusion 6)
- apparent KD of MS2 coat protein (MS2 coat protein; input ligand: FMN 200 uM): 52.5 nM
- apparent KD of MS2 coat protein (MS2 coat protein; input ligand: none): 49.9 nM

Sequence: AAUUAUUUUUGAGGAUAUCGUGGUGAAACACCACGAGAAGGCGAGAUACACAUGAGGAUCACCCAUGUGAGCCUGAUGCUUAUG [Ex NG1 #51] (Eterna round: R96, puzzle: Exclusion NG 1)
- apparent KD of MS2 coat protein (MS2 coat protein; input ligand: microRNA oligo, concentration not stated): 11.5 nM

Sequence: GAUGCUUCGGCAUCUACAAGCUUUUUGCUCGUCUUAUUAACAUGAGGAUCACCCAUGUACAAGAGACCUCAUGUAUU [Sensor v3 - turn-off variant 2 - 12] (puzzle: Sensor v3, turn-off variant 2)
- apparent KD of MS2 coat protein (MS2 coat protein; [4]): 125 nM
- apparent KD of MS2 coat protein (MS2 coat protein; [5]): 14.3 nM
- apparent KD of MS2 coat protein (MS2 coat protein; [6]): 202 nM

Sequence: ACACUGCGAGGAUAUACAUGAGGAUCACCCAUGUUUCGGUAGACAAGGUUAAUUUAAGGUAGAAGGCGCGUAUU [JR_Ex3_Sub009] (Eterna round: R97, puzzle: Exclusion 3)
- apparent KD of MS2 coat protein (MS2 coat protein; input ligand: FMN 200 uM): 173 nM
- apparent KD of MS2 coat protein (MS2 coat protein; input ligand: none): 40.2 nM

Sequence: GUUUGCAGACGGAGAUCCUACAUGAGGAUCACCCAUGUCUCACUAGCUUUUUGCUCGUCUUAUCCUCCUCUGUUCUC [Elimod 27 - Jieux - Sensor, turn-off variant 1] (Eterna round: R97, puzzle: Sensor, turn-off variant 1)
- apparent KD of MS2 coat protein (MS2 coat protein; input ligand: FMN 200 uM): 260 nM
- apparent KD of MS2 coat protein (MS2 coat protein; input ligand: none): 303 nM

Sequence: CAUGGAACAUAGGAUAUCUCGCGGCUAGACUGCAGAGAAGGAUGUACAUGAGGAUCACCCAUGUAUGAUCCAGU [Leisceza] (puzzle: Exclusion 6)
- apparent KD of MS2 coat protein (MS2 coat protein; [4]): 29.3 nM
- apparent KD of MS2 coat protein (MS2 coat protein; [5]): 15.8 nM
- apparent KD of MS2 coat protein (MS2 coat protein; [6]): 17.3 nM

Sequence: GAUCAGCUUGUGAGGAUAUCCGGGCUUAAAGGCUAGGAGAAGGUACAUGAGGAUCACCCAUGUAGAGUCCUGGG [Zageesen] (puzzle: Brourd's mod of Exclusion 4)
- apparent KD of MS2 coat protein (MS2 coat protein; [5]): 50.4 nM

Sequence: UUAUAAAGUGUGAGGAUAUGCUGGUCGAUAGAUCAGCAGAAGGCACAUGAGGAUCACCCAUGUAAUAUAUUUUA [Mat - Exclusion 4 - JL Mod - D45] (puzzle: Brourd's mod of Exclusion 4)
- apparent KD of MS2 coat protein (MS2 coat protein; [5]): 50 nM

Sequence: GUUAUGUCAGGAUAUGCUAAUGAUGAAUGAUCAGACAUAAUGUAGAAGGGACAUGAGGAUCACCCAUGUAAUAU [EX4 #6] (Eterna round: R97, puzzle: Exclusion 4)
- apparent KD of MS2 coat protein (MS2 coat protein; input ligand: FMN 200 uM): 29.4 nM
- apparent KD of MS2 coat protein (MS2 coat protein; input ligand: none): 23.3 nM

Sequence: UGAAAGUGAGGAUAUGGUGAGUAGUGCCUGAGCGCUGCUCACCAGAAGGCACAUGAGGAUCACCCAUGUAAAUG [Mat - Exclusion 4 - Mod of JL - D20] (puzzle: Exclusion 4)
- apparent KD of MS2 coat protein (MS2 coat protein; [5]): 38.9 nM

Sequence: GCAAGCAGCUUGGAAUGAGACAUGAGGAUCACCCAUGUUCAGCACAAAGCCUUCAAUCAUCAGCUCGAAAGUAAAUG [Eternabot (L2) Solution 16] (Eterna round: R97, puzzle: Sensor, turn-off variant 1)
- apparent KD of MS2 coat protein (MS2 coat protein; input ligand: FMN 200 uM): 14.7 nM
- apparent KD of MS2 coat protein (MS2 coat protein; input ligand: none): 16.3 nM

Sequence: UUUUACAAGCUAAGAUCCUACAUGAGGAUCACCCAUGUGGUCCGGUGACGUGAGUCACCGGACUUAGCUCGUCUUGC [salish99_S_TOV1_R5_088] (Eterna round: R97, puzzle: Sensor, turn-off variant 1)
- apparent KD of MS2 coat protein (MS2 coat protein; input ligand: FMN 200 uM): 36.2 nM
- apparent KD of MS2 coat protein (MS2 coat protein; input ligand: none): 43.7 nM

Sequence: CUUUUGUGAGGAUAUCAGUAGUAAAAAAAUAAAAUUACUACUGAGAAGGCACAUGAGGAUCACCCAUGUUCCUU [salish99_ex4_r3_010] (puzzle: Exclusion 4)
- apparent KD of MS2 coat protein (MS2 coat protein; [4]): 28.4 nM
- apparent KD of MS2 coat protein (MS2 coat protein; [5]): 15.2 nM
- apparent KD of MS2 coat protein (MS2 coat protein; [6]): 14 nM

Sequence: UUUUAACAUGAGGAUCACCCAUGUGAGGAUAUCGAAAUUUAUAUUUAUAUUAAUAUAACGAGAAGGCACAUUUU [JMF 79] (puzzle: Exclusion 1)
- apparent KD of MS2 coat protein (MS2 coat protein; [5]): 58.2 nM

Sequence: AGUACUAACACGAAAGUGUUAGUACAAUAAGCUUGUAGAACAUGAGGAUCACCCAUGUCCUCAUAAGCUCGUCUUAU [Mat - Sensor v3 - Turn-off var 2 - D48] (puzzle: Sensor v3, turn-off variant 2)
- apparent KD of MS2 coat protein (MS2 coat protein; [4]): 52.1 nM
- apparent KD of MS2 coat protein (MS2 coat protein; [5]): 442 nM
- apparent KD of MS2 coat protein (MS2 coat protein; [6]): 53.5 nM

Sequence: AAGAAACGAGGAUAUACAAUUAAGAGAGAGAAGGAAAUGAGACAUGAGGAUCACCCAUGUAGAAGGCGUAAGAG [JR_Exclu2_Sub083] (puzzle: Exclusion 2)
- apparent KD of MS2 coat protein (MS2 coat protein; [4]): 28 nM
- apparent KD of MS2 coat protein (MS2 coat protein; [5]): 31.5 nM
- apparent KD of MS2 coat protein (MS2 coat protein; [6]): 28.2 nM

Sequence: UCCUCACAUGAGGAUCACCCAUGUCAGGAUAUCCAACAUGCUCCCAAAACCACGCAUCGGAGAAGGGACAUGCA [EX1 A.6] (Eterna round: R97, puzzle: Exclusion 1)
- apparent KD of MS2 coat protein (MS2 coat protein; input ligand: FMN 200 uM): 21.7 nM
- apparent KD of MS2 coat protein (MS2 coat protein; input ligand: none): 17.7 nM

Sequence: GGAAAGGUAGGAUAUACGAAAAAAAAGGGUAGAAAAAAAACACAUGAGGAUCACCCAUGUAGAAGGACCAAAAG [salish99_ex2_r3_036] (puzzle: Exclusion 2)
- apparent KD of MS2 coat protein (MS2 coat protein; [4]): 44.8 nM
- apparent KD of MS2 coat protein (MS2 coat protein; [5]): 36.1 nM
- apparent KD of MS2 coat protein (MS2 coat protein; [6]): 33 nM

Sequence: AUUUUGUCAGGAUAUGACUAGUAGCACGAAAGUGCUACUACUUAGAAGGGACAUGAGGAUCACCCAUGUAUUCC [Bring Us a Shrubbery-10] (puzzle: Exclusion 4)
- apparent KD of MS2 coat protein (MS2 coat protein; [5]): 15.1 nM

Sequence: GCGUUCUGAGGAUAUACAUGAGGAUCACCCAUGUUGAGAAAUAAGAAUAAGCCCUUAAGUAGAAGGCAGAGUGC [JR_Ex3_Sub073] (Eterna round: R97, puzzle: Exclusion 3)
- apparent KD of MS2 coat protein (MS2 coat protein; input ligand: FMN 200 uM): 105 nM
- apparent KD of MS2 coat protein (MS2 coat protein; input ligand: none): 27.8 nM
